This is an account of results in paper PMC11844729.

The experiment has as its target F-actin (actin filaments from rabbit skeletal muscle actin) (rabbit), P68135. Description: single-molecule TIRF microscopy. The note with it: remark: other sources report otherwise.

B1: utrophin N-terminal fragment (amino acids 1 to 261)-sfGFP-6xHis, P46939 1-261 (domain or fragment)
chain: MAKYGEHEASPDNGQNEFSDIIKSRSDEHNDVQKKTFTKWINARFSKSGKPPINDMFTDLKDGRKLLDLLEGLTGTSLPKERGSTRVHALNNVNRVLQVLHQNNVELVNIGGTDIVDGNHKLTLGLLWSIILHWQVKDVMKDVMSDLQQTNSEKILLSWVRQTTRPYSQVNVLNFTTSWTDGLAFNAVLHRHKPDLFSWDKVVKMSPIERLEHAFSKAQTYLGIEKLLDPEDVAVQLPDKKSIIMYLTSLFEVLPQQVTID
modifications: here or on the partner: 30% DyLight-650 NHS ester-labelled and optionally 5% biotinylated (EZ-Link NHS-PEG4-biotin) actin
B1 showed a fold landing frequency on F-actin against mN2G^SR of 20 fold.
